Experiments:
[1] = target: antagonist MCC 99R I-E^k complex (mouse) (UniProt P04224); test: cell-based or functional assay
[2] = target: agonist MCC I-E^k complex (mouse) (UniProt G3UW40); test: cell-based or functional assay

Chain of antagonist MCC 99R I-E^k complex (mouse) (P04224 26-216, one chain of several): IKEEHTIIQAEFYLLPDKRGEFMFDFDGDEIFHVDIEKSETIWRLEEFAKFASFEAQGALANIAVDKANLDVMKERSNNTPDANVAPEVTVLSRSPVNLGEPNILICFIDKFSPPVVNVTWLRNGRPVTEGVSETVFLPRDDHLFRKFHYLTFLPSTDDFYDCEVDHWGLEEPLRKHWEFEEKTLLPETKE

peak cytosolic calcium response, miR-181a T cell blasts [1]: > 2 fold | half-maximal calcium response (EC50), control T cell blasts [2]: 5 peptides | half-maximal calcium response (EC50), miR-181a T cell blasts [2]: 2 peptides
Substance: 5C.C7 TCR
